Results on one substance are retold here after publication doi:10.1101/2022.02.18.481027.

By Kd is commonly meant a measure of binding affinity in units of concentration. Low readings indicate tighter binding, high ones weaker binding.

Assay [1] addresses Murine GP130 ectodomain with C-terminal biotin acceptor peptide, biotinylated (murine) (UniProt Q00560). Kind of assay: SPR. Background: Surface plasmon resonance follows binding to a sensor surface in real time, without labels.
Assay [2] has as its target Murine IL-27Rα ectodomain (amino acids 28-224), N-terminally biotinylated (murine) (UniProt O70394). Kind of assay: SPR.

Murine IL-27Rα ectodomain (amino acids 28-224), N-terminally biotinylated (murine), sequence (O70394 28-224): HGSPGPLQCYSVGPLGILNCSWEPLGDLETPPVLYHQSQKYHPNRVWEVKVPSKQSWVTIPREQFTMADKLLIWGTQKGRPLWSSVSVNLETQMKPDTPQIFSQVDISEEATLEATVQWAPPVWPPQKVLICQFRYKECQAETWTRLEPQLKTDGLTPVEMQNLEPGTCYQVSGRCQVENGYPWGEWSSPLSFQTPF
Murine GP130 ectodomain with C-terminal biotin acceptor peptide, biotinylated (murine), sequence (Q00560 23-319): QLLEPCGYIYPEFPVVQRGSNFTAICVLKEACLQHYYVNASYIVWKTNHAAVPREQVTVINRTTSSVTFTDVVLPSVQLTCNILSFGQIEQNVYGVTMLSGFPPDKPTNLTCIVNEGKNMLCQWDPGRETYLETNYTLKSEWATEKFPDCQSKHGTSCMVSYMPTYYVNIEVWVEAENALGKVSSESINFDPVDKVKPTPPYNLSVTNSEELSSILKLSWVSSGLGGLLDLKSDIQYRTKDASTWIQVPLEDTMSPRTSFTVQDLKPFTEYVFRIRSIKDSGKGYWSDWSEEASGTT

As for “Murine IL-27, linker-connected single-chain variant (p28+EBI3) (ligand)”, the Kd came out at 3.1 nM in assay [1] and 0.29 nM in assay [2].
